Test results: US20210292423A1 (published 2021)
Like-named read-outs stand apart in the source and are kept apart here.

B1: CODV-Fab hz20G6x7G3 antibody-like binding protein (bispecific antibody)
light: DFVMTQSPSSLTVTAGEKVTMSCKSSQSLLNSGNQKNYLTWYLQKPGQPPKLLIYWASTRESGVPDRFTGSGSGTDFTLTISSVQAEDLAVYYCQNDYSYPYTFGGGTKLEIKGQPKAAPDIVMTQTPLSLSVTPGQPASISCKSSQSLVHNNGNTYLSWYLQKPGQSPQSLIYKVSNRFSGVPDRFSGSGSGTDFTLKISRVEAEDVGVYYCGQGTQYPFTFGSGTKVEIKTKGPSRTVAAPSVFIFPPSDEQLKSGTASVVCLLNNFYPREAKVQWKVDNALQSGNSQESVTEQDSKDSTYSLSSTLTLSKADYEKHKVYACEVTHQGLSSPVTKSFNRGEC
heavy: QVQLVESGGGVVQPGRSLRLSCAASGFTFTKAWMHWVRQAPGKQLEWVAQIKDKSNSYATYYADSVKGRFTISRDDSKNTLYLQMNSLRAEDTAVYYCRGVYYALSPFDYWGQGTLVTVSSSEVQLQQSGPELVKPGASVKMSCKASGYTFTDYYMKWVKQSHGKSLEWIGDIIPSNGATFYNQKFKGKATLTVDRSSSTAYMHLNSLTSEDSAVYYCTRSHLLRASWFAYWGQGTLVTVSARTASTKGPSVFPLAPSSKSTSGGTAALGCLVKDYFPEPVTVSWNSGALTSGVHTFPAVLQSSGLYSLSSVVTVPSSSLGTQTYICNVNHKPSNTKVDKKVEPKSCDKTHTHHHHHH
notes: also called hz20G6 × 7G3 CODV-Fab
B2: CODV-Fab hz20G6xhz7G3 antibody-like binding protein (bispecific antibody)
light: DIVMTQSPDSLAVSLGERATINCESSQSLLNSGNQKNYLTWYQQKPGQPPKPLIYWASTRESGVPDRFSGSGSGTDFTLTISSLQAEDVAVYYCQNDYSYPYTFGQGTKLEIKGGSGSSGSGGDIVMTQTPLSLSVTPGQPASISCKSSQSLVHNNANTYLSWYLQKPGQSPQSLIYKVSNRFSGVPDRFSGSGSGTDFTLKISRVEAEDVGVYYCGQGTQYPFTFGSGTKVEIKGGSGSSGSGGRTVAAPSVFIFPPSDEQLKSGTASVVCLLNNFYPREAKVQWKVDNALQSGNSQESVTEQDSKDSTYSLSSTLTLSKADYEKHKVYACEVTHQGLSSPVTKSFNRGEC
heavy: QVQLVESGGGVVQPGRSLRLSCAASGFTFTKAWMHWVRQAPGKQLEWVAQIKDKSNSYATYYADSVKGRFTISRDDSKNTLYLQMNSLRAEDTAVYYCRGVYYALSPFDYWGQGTLVTVSSEVQLVQSGAEVKKPGESLKISCKGSGYSFTDYYMKWARQMPGKGLEWMGDIIPSSGATFYNQKFKGQVTISADKSISTTYLQWSSLKASDTAMYYCARSHLLRASWFAYWGQGTMVTVSSASTKGPSVFPLAPSSKSTSGGTAALGCLVKDYFPEPVTVSWNSGALTSGVHTFPAVLQSSGLYSLSSVVTVPSSSLGTQTYICNVNHKPSNTKVDKKVEPKSCDKTHTHHHHHH
notes: also called hz20G6xhz7G3 CODV-Fab
B3: CODV-Fab-OL1 hz20G6xhz7G3 antibody-like binding protein (bispecific antibody, human IgG1, kappa, L234A L235A)
light: B2 light
heavy: not shown
chain: GSDKTHTCPPCPAPEAAGGPSVFLFPPKPKDTLMISRTPEVTCVVVDVSHEDPEVKFNWYVDGVEVHNAKTKPREEQYNSTYRVVSVLTVLHQDWLNGKEYKCKVSNKALPAPIEKTISKAKGQPREPQVCTLPPSRDELTKNQVSLSCAVKGFYPSDIAVEWESNGQPENNYKTTPPVLDSDGSFFLVSKLTVDKSRWQQGNVFSCSVMHEALHNHYTQKSLSLSPG
notes: formula I chain, formula III chain and Fc stump (Fc3); also called hz20G6xhz7G3 CODV-Fab-OL1; hz20G6xhz7G3 CODV-OL1
B4: CODV-Fab 7G3xhz4B4 antibody-like binding protein (bispecific antibody)
light: DVVMTQTPVSLSVSVGGRVSISCRSSQSLVHDNGNTYLSWSLQKPGKSPKVLIYKVSNRFSGVSSRFTGSGSGTDFTLKISSVQPDDLGVYYCGQGTQYPFTFGSGTKLEIKGQPKAAPDFVMTQSPSSLTVTAGEKVTMSCKSSQSLLNSGNQKNYLTWYLQKPGQPPKLLIYWASTRESGVPDRFTGSGSGTDFTLTISSVQAEDLAVYYCQNDYSYPYTFGGGTKLEIKTKGPSRTVAAPSVFIFPPSDEQLKSGTASVVCLLNNFYPREAKVQWKVDNALQSGNSQESVTEQDSKDSTYSLSSTLTLSKADYEKHKVYACEVTHQGLSSPVTKSFNRGEC
heavy: EVQLQQSGPELVKPGASVKMSCKASGYTFTDYYMKWVKQSHGKSLEWIGDIIPSNGATFYNQKFKGKATLTVDRSSSTAYMHLNSLTSEDSAVYYCTRSHLLRASWFAYWGQGTLVTVSASQVQLVETGGGLVKPGQSLKLTCATSGFTFSNAWMHWVRQSPEKGLEWVAQIKARSNNYATYYAESVKGRFTISRDDSKSTIYLQMNSLTPEDTAIYYCRGTYYASKPFDYWGQGVMVTVSSRTASTKGPSVFPLAPSSKSTSGGTAALGCLVKDYFPEPVTVSWNSGALTSGVHTFPAVLQSSGLYSLSSVVTVPSSSLGTQTYICNVNHKPSNTKVDKKVEPKSCDKTHTHHHHHH
notes: also called 7G3 × hz4B4 CODV-Fab
B5: CODV-Fab-TL1 hz20G6xhz7G3 antibody-like binding protein (bispecific antibody, human IgG1, kappa, L234A L235A)
light: DIVMTQSPDSLAVSLGERATINCESSQSLLNSGNQKNYLTWYQQKPGQPPKPLIYWASTRESGVPDRFSGSGSGTDFTLTISSLQAEDVAVYYCQNDYSYPYTFGQGTKLEIKGGSGSSGSGGDIVMTQTPLSLSVTPGQPASISCKSSQSLVHNNANTYLSWYLQKPGQSPQSLIYKVSNRFSGVPDRFSGSGSGTDFTLKISRVEAEDVGVYYCGQGTQYPFTFGSGTKVEIKGGSGSSGSGGRTVAAPSVFIFPPSDEQLKSGTASVVCLLNNFYPREAKVQWKVDNALQSGNSQESVTEQDSKDSTYSLSSTLTLSKADYEKHKVYACEVTHQGLSSPVTKSFNRGECDKTHTCPPCPAPEAAGGPSVFLFPPKPKDTLMISRTPEVTCVVVDVSHEDPEVKFNWYVDGVEVHNAKTKPREEQYNSTYRVVSVLTVLHQDWLNGKEYKCKVSNKALPAPIEKTISKAKGQPREPQVYTLPPSRDELTKNQVSLTCLVKGFYPSDIAVEWESNGQPENNYKTTPPVLDSDGSFFLYSKLTVDKSRWQQGNVFSCSVMHEALHNRFTQKSLSLSPG
heavy: not shown
notes: one chain of formula IV and one of formula III, IgG1 backbone; also called hz20G6xhz7G3 CODV-Fab-TL1
B6: CODV-Fab hz4B4x3E3 antibody-like binding protein (bispecific antibody)
light: QFVLTQPNSVSTNLGSTVKLSCKRNTGNIGSNYVNWYQQHEGRSPTTMIYRDDKRPDGVPDRFSGSIDRSSNSALLTINNVQTEDEADYFCQSYSSGINIIFGGGTKLTVLGQPKAAPDVVMTQTPVSLSVSVGGRVSISCRSSQSLVHDNGNTYLSWSLQKPGKSPKVLIYKVSNRFSGVSSRFTGSGSGTDFTLKISSVQPDDLGVYYCGQGTQYPFTFGSGTKLEIKTKGPSRTVAAPSVFIFPPSDEQLKSGTASVVCLLNNFYPREAKVQWKVDNALQSGNSQESVTEQDSKDSTYSLSSTLTLSKADYEKHKVYACEVTHQGLSSPVTKSFNRGEC
heavy: QVQLVETGGGLVKPGQSLKLTCATSGFTFSNAWMHWVRQSPEKGLEWVAQIKARSNNYATYYAESVKGRFTISRDDSKSTIYLQMNSLTPEDTAIYYCRGTYYASKPFDYWGQGVMVTVSSSQVQLQESGPGLVQPSQTLSLTCTVSGFSLTTYDVHWVRQPPGKGLEWMGRIQNGGITDYNSALKSRLIISRDTSKSQVFLKMNSVQTEDTAMYFCAKTGSYFYAFDHWGQGTLVTVSSRTASTKGPSVFPLAPSSKSTSGGTAALGCLVKDYFPEPVTVSWNSGALTSGVHTFPAVLQSSGLYSLSSVVTVPSSSLGTQTYICNVNHKPSNTKVDKKVEPKSCDKTHTHHHHHH
notes: also called hz4B4 × 3E3 CODV-Fab
B7: single chain CD123 × CD3 bi-specific diabody in DART format MGD006 (bispecific antibody)
chain 1: QAVVTQEPSLTVSPGGTVTLTCRSSTGAVTTSNYANWVQQKPGQAPRGLIGGTNKRAPWTPARFSGSLLGGKAALTITGAQAEDEADYYCALWYSNLWVFGGGTKLTVLGGGGSGGGGEVQLVQSGAELKKPGASVKVSCKASGYTFTDYYMKWVRQAPGQGLEWIGDIIPSNGATFYNQKFKGRVTITVDKSTSTAYMELSSLRSEDTAVYYCARSHLLRASWFAYWGQGTLVTVSSGGCGGGEVAALEKEVAALEKEVAALEKEVAALEK
chain 2: DFVMTQSPDSLAVSLGERVTMSCKSSQSLLNSGNQKNYLTWYQQKPGQPPKLLIYWASTRESGVPDRFSGSGSGTDFTLTISSLQAEDVAVYYCQNDYSYPYTFGQGTKLEIKGGGSGGGGEVQLVESGGGLVQPGGSLRLSCAASGFTFSTYAMNWVRQAPGKGLEWVGRIRSKYNNYATYYADSVKDRFTISRDDSKNSLYLQMNSLKTEDTAVYYCVRHGNFGNSYVSWFAYWGQGTLVTVSSGGCGGGKVAALKEKVAALKEKVAALKEKVAALKE
notes: two chains covalently bonded by a disulfide bond; also called Single chain antibody DART format MGD006

Key:
[1] = target: T1, human CD123 Strep-II tagged Fc-fusion protein (human); test: SPR Biacore
T1 construct: also called human CD123-Fc; recombinant CD123

[2] = target: T2, human CD3ε/δ-Fc fusion protein (soluble recombinant CD3ε/δ complex) (human, UniProt P04234 22-105); test: SPR Biacore
T2 construct: also called huCD3ε/δ; huCD3; not shown: hinge, CH2, CH3 of human IgG with tag

[3] = target: T3, human CD123 (IL3RA) on cells (human, UniProt P26951 19-378); test: cell-based or functional assay
[4] = target: T1, human CD123 Strep-II tagged Fc-fusion …; test: SPR Biacore; remark: listed apart in the source
[5] = target: T2, human CD3ε/δ-Fc fusion protein (soluble …); test: SPR Biacore; remark: listed apart in the source
[6] = target: T4, human CD3 (TCR complex) on primary human T cells or Jurkat cells (human, UniProt P07766 23-207); test: cell-based or functional assay
[7] = target: T3, human CD123 (IL3RA) on cells; test: cell-based or functional assay; remark: listed apart in the source
[8] = target: T4, human CD3 (TCR complex) on primary …; test: cell-based or functional assay; remark: listed apart in the source
[9] = target: T3, human CD123 (IL3RA) on cells; test: cell-based or functional assay; remark: listed apart in the source

T4 sequence (P07766 23-207, one chain of several): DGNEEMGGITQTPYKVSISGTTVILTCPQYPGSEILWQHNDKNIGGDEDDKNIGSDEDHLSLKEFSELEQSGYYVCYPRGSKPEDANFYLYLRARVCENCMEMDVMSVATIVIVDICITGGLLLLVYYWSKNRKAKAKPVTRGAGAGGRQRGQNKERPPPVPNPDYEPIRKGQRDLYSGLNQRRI
T1 sequence (chain, as listed by the source limits assumed): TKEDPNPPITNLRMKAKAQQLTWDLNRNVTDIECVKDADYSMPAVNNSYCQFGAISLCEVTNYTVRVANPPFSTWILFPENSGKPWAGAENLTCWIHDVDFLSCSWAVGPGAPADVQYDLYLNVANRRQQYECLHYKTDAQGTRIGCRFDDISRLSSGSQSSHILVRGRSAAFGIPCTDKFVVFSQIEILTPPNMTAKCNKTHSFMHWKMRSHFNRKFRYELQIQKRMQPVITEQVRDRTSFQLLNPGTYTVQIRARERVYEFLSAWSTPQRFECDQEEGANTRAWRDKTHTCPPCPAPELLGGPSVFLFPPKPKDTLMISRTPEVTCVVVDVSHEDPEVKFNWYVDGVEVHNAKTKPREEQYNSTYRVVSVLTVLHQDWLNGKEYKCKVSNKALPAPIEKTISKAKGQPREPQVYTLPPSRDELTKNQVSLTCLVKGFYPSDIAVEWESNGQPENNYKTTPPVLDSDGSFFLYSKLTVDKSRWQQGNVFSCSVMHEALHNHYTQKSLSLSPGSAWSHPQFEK
T3 sequence (P26951 19-378): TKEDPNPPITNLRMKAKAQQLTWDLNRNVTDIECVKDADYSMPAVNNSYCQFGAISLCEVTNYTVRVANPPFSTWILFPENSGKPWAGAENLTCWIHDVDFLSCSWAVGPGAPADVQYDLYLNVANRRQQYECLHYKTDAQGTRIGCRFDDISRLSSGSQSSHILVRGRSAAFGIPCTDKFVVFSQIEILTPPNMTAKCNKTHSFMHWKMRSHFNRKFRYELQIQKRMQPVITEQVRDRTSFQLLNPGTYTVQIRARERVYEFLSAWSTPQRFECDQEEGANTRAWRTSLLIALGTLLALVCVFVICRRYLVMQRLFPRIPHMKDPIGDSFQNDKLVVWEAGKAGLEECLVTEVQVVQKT
T2 sequence (chain, as listed by the source mutant, chain 1 of 2): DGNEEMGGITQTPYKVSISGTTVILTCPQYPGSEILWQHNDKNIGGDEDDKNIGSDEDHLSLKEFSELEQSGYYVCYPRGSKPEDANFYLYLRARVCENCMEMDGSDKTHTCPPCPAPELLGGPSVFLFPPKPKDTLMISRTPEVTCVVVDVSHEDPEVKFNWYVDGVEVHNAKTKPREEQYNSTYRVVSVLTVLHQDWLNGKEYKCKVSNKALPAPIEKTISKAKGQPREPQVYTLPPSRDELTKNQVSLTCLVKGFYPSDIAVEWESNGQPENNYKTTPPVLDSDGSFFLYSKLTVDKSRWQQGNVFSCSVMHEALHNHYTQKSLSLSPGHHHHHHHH
T2 sequence (P04234 22-105, stated change not applied, chain 2 of 2): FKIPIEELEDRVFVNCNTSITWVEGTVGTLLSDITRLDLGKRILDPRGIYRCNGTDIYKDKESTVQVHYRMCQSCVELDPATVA

| Binder | Kd [1] [nM] | Kd [2] [nM] | Cytotoxic assay (THP cells) EC50 [pM] [3] [pM] | Kd [4] [nM] | Kd [5] [nM] | Jurkat-NFAT-Luc reporter, no target cells, activation at Cmax in relation to max. activation in assay with target cells (%) [6] [%] | Jurkat-NFAT-Luc reporter, with THP1 cells, EC50 (pM) [6] [pM] | Cytotoxic assay (THP cells) EC50 [pM] [7] [pM] | T cell activation with THP-1 target cells, CD4+ T cells (% CD69+ cells) EC50 (pM) [8] [pM] | T cell activation with THP-1 target cells, CD8+ T cells (% CD69+ cells) EC50 (pM) [8] [pM] | Cytotoxicity (THP-1) geomean EC50 [9] [ng/mL] | Cytotoxicity (THP-1) geomean EC50 [pM] [9] [pM] |
| --- | --- | --- | --- | --- | --- | --- | --- | --- | --- | --- | --- | --- |
| B1 | 0.6 | 5 | 30.9 | – | – | – | – | – | – | – | – | – |
| B2 | – | – | – | 0.2 | 9 | 0.2 | 561 | 2.1 | 1.4 | 3.1 | – | – |
| B3 | – | – | – | – | 15 | 0.4 | 320 | – | 1 | 3.3 | – | – |
| B4 | 0.1 | 5.4 | 26.7 | – | – | – | – | – | – | – | – | – |
| B5 | – | – | – | 0.2 | 11 | 0.4 | 444 | 1 | 3.2 | 9.9 | – | – |
| B6 | 4.8 | 7 | 26.5 | – | – | – | – | – | – | – | 2 | 26.5 |
| B7 | – | – | – | 0.2 | 9 | 25.1 | 370 | 0.3 | 1 | 3.5 | – | – |
